Laboratory results as given in PMC8533776.

Target: enhanced green fluorescent protein (EGFP) [GFP: P42212]
Assay: ELISA; EGFP coated at 100 ng/well in PBS overnight at 4 °C, blocked with 3% BSA; threefold serial dilutions of the binders, 37 °C for 1.5 h; detection by HRP-conjugated anti-Flag antibody, ABTS, OD405

EC50: 630 pM
Substance: αEGFP TRIMbody (RBCC-LaG16-LaG2)
